According to US20240336681A1 (LUDWIG MAXIMILIANS UNIVERSIT T M NCHEN, published 2024):

B1: 2D6-009 (antibody, IgG4, V domains shown)
VH: QVQLVESGGGLVQPGGSLRLSCAASGYTFTSYDINWVRQAPGKGLEWVGWIYPRDGSPKYNEKFKGRFTISADTSKNTAYLQMNSLRAEDTAVYYCARSVYYGTQFAYWGQGTLVTVSS
VL: DIVLTQSPSSLSASVGDRVTMSCKSSQSLLNSRTRKNYLAWYQQKPGKAPKLLIYWASTRDSGVPSRFSGSGSGTDFTLTISSLQPEDIATYYCKQSFNLVTFGGGTKLEIK
B2: 2D6-003 (antibody, IgG4, V domains shown)
VH: QVELVQSGAEVKKPGSSVKVSCKASGGTFPSYDINWVRQAPGQGLEWMGWIYPRDGSPKYNEKFKGRVTITADESTSTAYMELSSLRSEDTAVYYCARSVYYGTQFAYWGQGTLVTVSS
VL: DIQMTQSPSSLSASVGDRVTITCKSSQSLLNSRTRKNYLAWYQQKPGKAPKLLIYWASTRDSGVPSRFSGSGSGTDFTLTISSLQPEDFATYYCKQSFNLVTFGQGTKVEIK
notes: also called VH1/VL3
B3: 2D6-010 (antibody, IgG4, V domains shown)
VH: QVQLVESGGGLVQPGGSLRLSCAASGYTFTSYDINWVRQAPGKGLEWVGWIYPRDGSPKYNEKFKGRFTISADTSKNTAYLQMNSLRAEDTAVYYCARSVYYGTQFAYWGQGTLVTVSS
VL: DIVMTQSPSSLAVSLGERVTMSCKSSQSLLNSRTRKNYLAWYQQKPGQPPKLLIYWASTRDSGVPDRFSGSGSGTDFTLTISSLQAEDVAVYYCKQSFNLVTFGGGTKLEIK
notes: also called VH3/VL2
B4: 2D6-001 (antibody, IgG4, V domains shown)
VH: QVELVQSGAEVKKPGSSVKVSCKASGGTFPSYDINWVRQAPGQGLEWMGWIYPRDGSPKYNEKFKGRVTITADESTSTAYMELSSLRSEDTAVYYCARSVYYGTQFAYWGQGTLVTVSS
VL: DIVLTQSPSSLSASVGDRVTMSCKSSQSLLNSRTRKNYLAWYQQKPGKAPKLLIYWASTRDSGVPSRFSGSGSGTDFTLTISSLQPEDIATYYCKQSFNLVTFGGGTKLEIK
notes: also called VH1/VL1
B5: 2D6-014 (antibody, IgG4, V domains shown)
VH: QVQLVESGGGLVQPGGSLRLSCAASGYTFPSYDINWVRQAPGKGLEWVGWIYPRDGSPKYNEKFKGRFTISADTSKNTAYLQMNSLRAEDTAVYYCARSVYYGTQFAYWGQGTLVTVSS
VL: DIVMTQSPSSLAVSLGERVTMSCKSSQSLLNSRTRKNYLAWYQQKPGQPPKLLIYWASTRDSGVPDRFSGSGSGTDFTLTISSLQAEDVAVYYCKQSFNLVTFGGGTKLEIK
notes: also called VH4/VL2
B6: 2D6-037 (bispecific antibody, part only; not given: linkers and anti-TAA IgG1 chains, V domains shown, not shown: another chain or arm of the molecule; large carriers; small tags and cut ends)
VH: QVELVQSGPEVKKPGSSVKVSCKASGYTFPSYDINWVRQRPGQGLEWMGWIYPRFGSPKYNEKFKGRVTITADTSTSTAYMELHSLRSEDTAVYYCARSVYYGTQFAYWGQGTLVTVSA
VL: DIVLTQSPSSLAVSLGERVTMSCKSSQSLLNSRTRKNYLAWYQQKPGQPPKLLIYWASTRDSGVPDRFSGSGSGTDFTLTISSLQAEDVAVYYCKQSFNLVTFGGGTKLEIK
B7: 2D6-007 (antibody, IgG4, V domains shown)
VH: QVELVQSGPEVKKPGSSVKVSCKASGYTFPSYDINWVRQRPGQGLEWMGWIYPRDGSPKYNEKFKGRVTITADTSTSTAYMELHSLRSEDTAVYYCARSVYYGTQFAYWGQGTLVTVSA
VL: DIQMTQSPSSLSASVGDRVTITCKSSQSLLNSRTRKNYLAWYQQKPGKAPKLLIYWASTRDSGVPSRFSGSGSGTDFTLTISSLQPEDFATYYCKQSFNLVTFGQGTKVEIK
notes: also called VH2/VL3
B8: 2D6-008 (antibody, IgG4, V domains shown)
VH: QVELVQSGPEVKKPGSSVKVSCKASGYTFPSYDINWVRQRPGQGLEWMGWIYPRDGSPKYNEKFKGRVTITADTSTSTAYMELHSLRSEDTAVYYCARSVYYGTQFAYWGQGTLVTVSA
VL: DIVMTQSPSSLSASVGDRVTITCKSSQSLLNSRTRKNYLAWYQQKPGKAPKLLIYWASTRDSGVPDRFSGSGSGTDFTLTISSLQPEDFATYYCKQSFNLVTFGQGTKVEIK
notes: also called VH2/VL4
B9: 2D6-036 (bispecific antibody, part only; not given: linkers and anti-TAA IgG1 chains, V domains shown, not shown: another chain or arm of the molecule; large carriers; small tags and cut ends)
VH: QVELVQSGPEVKKPGSSVKVSCKASGYTFPSYDINWVRQRPGQGLEWMGWIIPRDGSPKYNEKFKGRVTITADTSTSTAYMELHSLRSEDTAVYYCARSVYYGTQFAYWGQGTLVTVSA
VL: DIVLTQSPSSLAVSLGERVTMSCKSSQSLLNSRTRKNYLAWYQQKPGQPPKLLIYWASTRDSGVPDRFSGSGSGTDFTLTISSLQAEDVAVYYCKQSFNLVTFGGGTKLEIK
B10: 2D6-013 (antibody, IgG4, V domains shown)
VH: QVQLVESGGGLVQPGGSLRLSCAASGYTFPSYDINWVRQAPGKGLEWVGWIYPRDGSPKYNEKFKGRFTISADTSKNTAYLQMNSLRAEDTAVYYCARSVYYGTQFAYWGQGTLVTVSS
VL: DIVLTQSPSSLSASVGDRVTMSCKSSQSLLNSRTRKNYLAWYQQKPGKAPKLLIYWASTRDSGVPSRFSGSGSGTDFTLTISSLQPEDIATYYCKQSFNLVTFGGGTKLEIK
notes: also called VH4/VL1
B11: 2D6-012 (antibody, IgG4, V domains shown)
VH: QVQLVESGGGLVQPGGSLRLSCAASGYTFTSYDINWVRQAPGKGLEWVGWIYPRDGSPKYNEKFKGRFTISADTSKNTAYLQMNSLRAEDTAVYYCARSVYYGTQFAYWGQGTLVTVSS
VL: DIVMTQSPSSLSASVGDRVTITCKSSQSLLNSRTRKNYLAWYQQKPGKAPKLLIYWASTRDSGVPDRFSGSGSGTDFTLTISSLQPEDFATYYCKQSFNLVTFGQGTKVEIK
notes: also called VH3/VL4
B12: 2D6-011 (antibody, IgG4, V domains shown)
VH: QVQLVESGGGLVQPGGSLRLSCAASGYTFTSYDINWVRQAPGKGLEWVGWIYPRDGSPKYNEKFKGRFTISADTSKNTAYLQMNSLRAEDTAVYYCARSVYYGTQFAYWGQGTLVTVSS
VL: DIQMTQSPSSLSASVGDRVTITCKSSQSLLNSRTRKNYLAWYQQKPGKAPKLLIYWASTRDSGVPSRFSGSGSGTDFTLTISSLQPEDFATYYCKQSFNLVTFGQGTKVEIK
notes: also called VH3/VL3
B13: 2D6-046 (bispecific antibody, part only; not given: linkers and anti-TAA IgG1 chains, V domains shown, not shown: another chain or arm of the molecule; large carriers; small tags and cut ends)
VH: QVELVQSGPEVKKPGSSVKVSCKASGYTFPSYDINWVRQRPGQGLEWMGWIYPRDGSPKYNEKFKGRVTITADTSTSTAYMELHSLRSEDTAVYYCARSVYYGTQFAYWGQGTLVTVSA
VL: DIVLTQSPSSLAVSLGERVTMSCKSSQSLLNSRTRKNYLAWYQQKPGQPPKLLIYWASTRDSGVPDRFSGSGSGTDFTLTISSLQAEDVAVYYCQQSFNLVTFGGGTKLEIK
B14: 2D6-006 (antibody, IgG4, V domains shown)
VH: QVELVQSGPEVKKPGSSVKVSCKASGYTFPSYDINWVRQRPGQGLEWMGWIYPRDGSPKYNEKFKGRVTITADTSTSTAYMELHSLRSEDTAVYYCARSVYYGTQFAYWGQGTLVTVSA
VL: DIVMTQSPSSLAVSLGERVTMSCKSSQSLLNSRTRKNYLAWYQQKPGQPPKLLIYWASTRDSGVPDRFSGSGSGTDFTLTISSLQAEDVAVYYCKQSFNLVTFGGGTKLEIK
notes: also called VH2/VL2
B15: 2D6-002 (antibody, IgG4, V domains shown)
VH: QVELVQSGAEVKKPGSSVKVSCKASGGTFPSYDINWVRQAPGQGLEWMGWIYPRDGSPKYNEKFKGRVTITADESTSTAYMELSSLRSEDTAVYYCARSVYYGTQFAYWGQGTLVTVSS
VL: DIVMTQSPSSLAVSLGERVTMSCKSSQSLLNSRTRKNYLAWYQQKPGQPPKLLIYWASTRDSGVPDRFSGSGSGTDFTLTISSLQAEDVAVYYCKQSFNLVTFGGGTKLEIK
notes: also called VH1/VL2

Tests used:
[1] = target: T1, human CD47 on cells (human, UniProt Q08722 19-323); test: flow cytometry on CD47-positive Expi293 cells, 50 nM antibody; MFI of the antibody over MFI of the isotype control
T1 construct: also called CD47 on Molm-13, OVCAR-3, Suit-2 MSLN, HL-60 cells, red blood cells and CD47-transfected CHO cells
Description: (§1) Initially, binding of anti-hCD47 IgG4, anti-hCD47 IgG1 antibodies and Fab domains were measured on CD47-expressing cells by flow cytometry. Cells were stained with 50 nM of antibody followed by staining with a secondary fluorescently labelled anti-human IgG Fc or light-chain antibody, and analyzed by flow cytometry. Binding was measured by calculating the median fluorescence intensity (MFI) ratio, by dividing MFI of the antibody by the MFI of the isotype control.

[2] = target: T1, human CD47 on cells; test: flow cytometry on CD47-positive Expi293 cells; MFI of the antibody over MFI of the isotype control
Description: as §1

[3] = target: recombinant C-terminally His-tagged human CD47 (extracellular domain) (human) (UniProt Q08722); test: SPR, Biacore X100; construct captured by anti-human Fc on CM5 chip, human CD47 extracellular domain as analyte, 1:1 fit
Chain of recombinant C-terminally His-tagged human CD47 (extracellular domain) (human) (Q08722 19-141): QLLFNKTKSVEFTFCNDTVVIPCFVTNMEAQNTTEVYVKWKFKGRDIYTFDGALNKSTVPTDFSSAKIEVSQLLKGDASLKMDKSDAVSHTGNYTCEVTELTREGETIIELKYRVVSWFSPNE

T1 sequence (Q08722 19-323): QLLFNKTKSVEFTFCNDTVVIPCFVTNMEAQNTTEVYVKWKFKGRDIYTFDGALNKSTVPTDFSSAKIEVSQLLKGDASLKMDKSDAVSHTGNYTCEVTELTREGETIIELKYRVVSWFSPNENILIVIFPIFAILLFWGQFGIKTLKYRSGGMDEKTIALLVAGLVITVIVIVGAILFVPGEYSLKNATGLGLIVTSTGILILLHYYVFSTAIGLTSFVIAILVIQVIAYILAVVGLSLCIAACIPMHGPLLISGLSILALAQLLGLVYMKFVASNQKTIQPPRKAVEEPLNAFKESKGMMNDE

| Binder | MFI ratio [1] | binding result [2] | Kd [3] |
| --- | --- | --- | --- |
| B1 | 1.58 |  |  |
| B2 | 1.06 | no binding (tested: 50 nM (not on the sheet)) |  |
| B3 | 1.08 | no binding (tested: 50 nM (not on the sheet)) |  |
| B4 | 1.15 | no binding (tested: 50 nM (not on the sheet)) |  |
| B5 | 1.03 | no binding (tested: 50 nM (not on the sheet)) |  |
| B6 |  |  | 176 nM |
| B7 | 3.92 |  |  |
| B8 | 3.29 |  |  |
| B9 |  |  | 1110 nM |
| B10 | 1.05 | no binding (tested: 50 nM (not on the sheet)) |  |
| B11 | 4.1 |  |  |
| B12 | 4.51 |  |  |
| B13 |  |  | 406 nM |
| B14 | 3.12 |  |  |
| B15 | 1.06 | no binding (tested: 50 nM (not on the sheet)) |  |
